Assay [1] has as its target 1444-CAR (CD8信号肽-(anti-MSLN)-CD8 hinge-CD28 TM-CD28IC-CD3z), expressed on the T cells of patient S0105's MSLN_CAR-T product, batch BZDS202012001. In words: flow cytometry, PE-mesothelin staining of S0105 CAR-T product, no serum.
Assay [2] has as its target 2339-CAR (CD8信号肽-2339(anti-MSLN)-CD8hinge-CD28TM-CD28IC-CD3z), expressed on T cells of MSLN_CAR-T products (batch BZDS202101001 for patient S0106; same sequence for S0304). In words: flow cytometry, PE-mesothelin staining of S0106 CAR-T product, no serum. (In general: In flow cytometry, cells or beads pass a laser one at a time.)
Assay [3] shares this target. In words: flow cytometry, PE-mesothelin staining of CAR-T product (table for S0304), no serum.

2339-CAR (CD8信号肽-2339(anti-MSLN)-CD8hinge-CD28TM-CD28IC-CD3z), expressed on T cells of MSLN_CAR-T products (batch BZDS202101001 for patient S0106; same sequence for S0304), sequence (chain, as listed by the source limits assumed): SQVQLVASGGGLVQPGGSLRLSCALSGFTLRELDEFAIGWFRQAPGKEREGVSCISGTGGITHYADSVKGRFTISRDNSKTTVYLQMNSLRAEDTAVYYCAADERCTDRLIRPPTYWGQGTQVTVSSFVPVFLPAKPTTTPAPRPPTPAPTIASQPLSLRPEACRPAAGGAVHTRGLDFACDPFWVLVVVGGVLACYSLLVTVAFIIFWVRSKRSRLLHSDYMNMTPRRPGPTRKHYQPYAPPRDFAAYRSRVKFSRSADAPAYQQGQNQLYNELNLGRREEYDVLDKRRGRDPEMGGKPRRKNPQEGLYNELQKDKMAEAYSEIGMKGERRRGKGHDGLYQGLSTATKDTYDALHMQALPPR
1444-CAR (CD8信号肽-(anti-MSLN)-CD8 hinge-CD28 TM-CD28IC-CD3z), expressed on the T cells of patient S0105's MSLN_CAR-T product, batch BZDS202012001, sequence (chain, as listed by the source): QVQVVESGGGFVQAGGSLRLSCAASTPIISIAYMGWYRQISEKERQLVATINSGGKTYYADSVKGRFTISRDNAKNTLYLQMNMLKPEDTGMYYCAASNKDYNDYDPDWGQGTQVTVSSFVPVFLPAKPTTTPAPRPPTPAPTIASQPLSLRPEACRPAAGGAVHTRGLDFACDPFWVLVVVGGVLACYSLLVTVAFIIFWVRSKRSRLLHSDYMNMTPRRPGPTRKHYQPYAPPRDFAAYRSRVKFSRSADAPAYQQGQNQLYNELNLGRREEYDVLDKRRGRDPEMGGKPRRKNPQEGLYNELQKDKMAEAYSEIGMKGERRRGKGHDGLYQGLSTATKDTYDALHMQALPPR

For the substance “PE荧光标记的间皮素 (PE-labelled mesothelin, MSLN) (from UniProt Q13421 296-580) (ligand)”, the 阳性率 (percent of T cells stained by labelled mesothelin) in assay [1] is 32.7%; in assay [2], 96.8%; in assay [3], 96.8%.

The values are drawn from CN116930475A.
